T1: PUF4 RNA-binding domain (Saccharomyces cerevisiae, UniProt P25339 537-888)
T1 sequence: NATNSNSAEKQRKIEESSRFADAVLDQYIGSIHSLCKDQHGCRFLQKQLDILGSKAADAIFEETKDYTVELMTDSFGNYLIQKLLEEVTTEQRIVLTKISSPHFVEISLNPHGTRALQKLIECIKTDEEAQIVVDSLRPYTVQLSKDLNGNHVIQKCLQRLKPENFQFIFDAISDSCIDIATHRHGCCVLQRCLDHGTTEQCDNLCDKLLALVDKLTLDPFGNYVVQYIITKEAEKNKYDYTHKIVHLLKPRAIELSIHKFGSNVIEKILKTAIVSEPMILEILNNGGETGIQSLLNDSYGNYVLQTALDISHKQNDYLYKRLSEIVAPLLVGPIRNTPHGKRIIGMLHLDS


The binders below were run against T1, PUF4 RNA-binding domain (assay: Mg; RNA-MaP; 20 mM Na-HEPES pH 7.4, 30 mM KOAc, 0.75 mM MgCl2, 0.1% Tween-20, 5% glycerol, 0.1 mg/mL BSA, 2 mM DTT; 25 C; 0.0125-409.6 nM protein). Conditions: tags: N-His6-TEV cleaved; C-SNAP kept, Cy3B-labelled; label: tethered on chip by stalled RNA polymerase.
ACAAACGAUAUAUAUAAUACAAAC (ssRNA) [Id_ii_S3_P3E.3_K3.2_C3.2_[C-2G]_[T-1A]_H3.2_A3.1_F3.1_T3.2_[T9A]_[A10T]] showed a Kd of 115 nM. Binder ACAAACGUUAUAUAUAGUACAAAC (ssRNA) [Id_ii_S3_P3E.3_K3.2_C3.2_[C-2G]_H3.2_A3.1_F3.1_T3.2_[T9G]_[A10T]] has a Kd of 292 nM. ACAAACAAUAUAUAUACGACAAAC (ssRNA) [Id_ii_S3_P3E.3_K3.2_C3.2_[C-2A]_[T-1A]_H3.2_A3.1_F3.1_T3.2_[T9C]_[A10G]] was tested, and the Kd was 1290 nM. Work on ACAAACUUUAUAUAUAUUACAAAC (ssRNA) [Id_ii_S3_P3E.3_K3.2_C3.2_[C-2T]_H3.2_A3.1_F3.1_T3.2_[A10T]] yielded a Kd of 34.5 nM. For ACAAACUUUAUAUAUAAUACAAAC (ssRNA) [Id_ii_S3_P3E.3_K3.2_C3.2_[C-2T]_H3.2_A3.1_F3.1_T3.2_[T9A]_[A10T]], the Kd was 149 nM. ACAAACACUAUAUAUAAAACAAAC (ssRNA) [Id_ii_S3_P3E.3_K3.2_C3.2_[C-2A]_[T-1C]_H3.2_A3.1_F3.1_T3.2_[T9A]] showed a Kd of 1080 nM. In the case of ACAAACUUUAUAUAUAUAACAAAC (ssRNA) [Id_ii_S3_P3E.3_K3.2_C3.2_[C-2T]_H3.2_A3.1_F3.1_T3.2], the Kd is reported as 595 nM. With UCUCUUUGUAUUUUGAUCUCUU (ssRNA) [Ib_S1_P5E.1_K5.1_C5.1_H5.1_A5.1_[A7T]_F5.1_[T9G]_T5.1] the Kd was 17.1 nM. With ACAAACUCUAUAUAUAAAACAAAC (ssRNA) [Id_ii_S3_P3E.3_K3.2_C3.2_[C-2T]_[T-1C]_H3.2_A3.1_F3.1_T3.2_[T9A]] the Kd was 932 nM. For ACAAACACUAUAUAUACAACAAAC (ssRNA) [Id_ii_S3_P3E.3_K3.2_C3.2_[C-2A]_[T-1C]_H3.2_A3.1_F3.1_T3.2_[T9C]], the Kd was 735 nM. With ACAAACUCUAUAUAUAUUACAAAC (ssRNA) [Id_ii_S3_P3E.3_K3.2_C3.2_[C-2T]_[T-1C]_H3.2_A3.1_F3.1_T3.2_[A10T]] the Kd was 39 nM. Binder UCUCUUUGUAUUCUCAUCUCUU (ssRNA) [Ib_S1_P5E.1_K5.1_C5.1_H5.1_A5.1_[A7C]_F5.1_[T9C]_T5.1] has a Kd of 29.8 nM. For ACAAACUAUAUAUAUAACACAAAC (ssRNA) [Id_ii_S3_P3E.3_K3.2_C3.2_[C-2T]_[T-1A]_H3.2_A3.1_F3.1_T3.2_[T9A]_[A10C]], the Kd was 376 nM. In the case of ACAAACACUAUAUAUAAGACAAAC (ssRNA) [Id_ii_S3_P3E.3_K3.2_C3.2_[C-2A]_[T-1C]_H3.2_A3.1_F3.1_T3.2_[T9A]_[A10G]], the Kd is reported as 450 nM. Work on ACAAACGUUAUAUAUACCACAAAC (ssRNA) [Id_ii_S3_P3E.3_K3.2_C3.2_[C-2G]_H3.2_A3.1_F3.1_T3.2_[T9C]_[A10C]] yielded a Kd of 1700 nM. For ACAAACGAUAUAUAUACAACAAAC (ssRNA) [Id_ii_S3_P3E.3_K3.2_C3.2_[C-2G]_[T-1A]_H3.2_A3.1_F3.1_T3.2_[T9C]], the Kd was 839 nM. ACAAACACUAUAUAUAUCACAAAC (ssRNA) [Id_ii_S3_P3E.3_K3.2_C3.2_[C-2A]_[T-1C]_H3.2_A3.1_F3.1_T3.2_[A10C]] gave a Kd of 541 nM. ACAAACACUAUAUAUAUGACAAAC (ssRNA) [Id_ii_S3_P3E.3_K3.2_C3.2_[C-2A]_[T-1C]_H3.2_A3.1_F3.1_T3.2_[A10G]] was tested, and the Kd was 572 nM. With ACAAACGUUAUAUAUAUUACAAAC (ssRNA) [Id_ii_S3_P3E.3_K3.2_C3.2_[C-2G]_H3.2_A3.1_F3.1_T3.2_[A10T]] the Kd was 154 nM. Binder ACAAACGCUAUAUAUAUCACAAAC (ssRNA) [Id_ii_S3_P3E.3_K3.2_C3.2_[C-2G]_[T-1C]_H3.2_A3.1_F3.1_T3.2_[A10C]] has a Kd of 836 nM. With UCUCUUUGUAUUUUCAUCUCUU (ssRNA) [Ic_S1_P5E.1_K5.1_C5.1_H5.1_A5.1_[A7T]_F5.1_[T9C]_T5.1] the Kd was 32.5 nM. For ACAAACACUAUAUAUACUACAAAC (ssRNA) [Id_ii_S3_P3E.3_K3.2_C3.2_[C-2A]_[T-1C]_H3.2_A3.1_F3.1_T3.2_[T9C]_[A10T]], the Kd was 43.8 nM. ACAAACAGUAUAUAUAACACAAAC (ssRNA) [Id_ii_S3_P3E.3_K3.2_C3.2_[C-2A]_[T-1G]_H3.2_A3.1_F3.1_T3.2_[T9A]_[A10C]] showed a Kd of 522 nM. ACAAACUAUAUAUAUACAACAAAC (ssRNA) [Id_ii_S3_P3E.3_K3.2_C3.2_[C-2T]_[T-1A]_H3.2_A3.1_F3.1_T3.2_[T9C]] showed a Kd of 205 nM. With ACAAACGCUAUAUAUAACACAAAC (ssRNA) [Id_ii_S3_P3E.3_K3.2_C3.2_[C-2G]_[T-1C]_H3.2_A3.1_F3.1_T3.2_[T9A]_[A10C]] the Kd was 1130 nM. In the case of ACAAACGAUAUAUAUAGGACAAAC (ssRNA) [Id_ii_S3_P3E.3_K3.2_C3.2_[C-2G]_[T-1A]_H3.2_A3.1_F3.1_T3.2_[T9G]_[A10G]], the Kd is reported as 535 nM. For ACAAACGAUAUAUAUAAGACAAAC (ssRNA) [Id_ii_S3_P3E.3_K3.2_C3.2_[C-2G]_[T-1A]_H3.2_A3.1_F3.1_T3.2_[T9A]_[A10G]], the Kd was 786 nM. ACAAACACUAUAUAUACCACAAAC (ssRNA) [Id_ii_S3_P3E.3_K3.2_C3.2_[C-2A]_[T-1C]_H3.2_A3.1_F3.1_T3.2_[T9C]_[A10C]] showed a Kd of 816 nM. ACAAACACUAUAUAUAUAACAAAC (ssRNA) [Id_ii_S3_P3E.3_K3.2_C3.2_[C-2A]_[T-1C]_H3.2_A3.1_F3.1_T3.2] showed a Kd of 873 nM.

— publication PMC9352680, “A comprehensive thermodynamic model for RNA binding by the Saccharomyces cerevisiae Pumilio protein PUF4”
